From PMC10457294 (2023)

T1: CPXV M2 (cowpox virus M2), recombinant, His-tagged (cowpox virus, UniProt Q8QN22 18-220)
T1 chain: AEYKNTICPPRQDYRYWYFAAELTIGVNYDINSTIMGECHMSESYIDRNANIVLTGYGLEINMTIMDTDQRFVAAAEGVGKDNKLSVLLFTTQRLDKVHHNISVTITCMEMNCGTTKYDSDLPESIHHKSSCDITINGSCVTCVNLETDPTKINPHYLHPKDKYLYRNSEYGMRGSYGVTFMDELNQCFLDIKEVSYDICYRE

B1: human B7.1 ectodomain fused to human Fc (Fc fusion)
chain: VIHVTKEVKEVATLSCGHNVSVEELAQTRIYWQKEKKMVLTMMSGDMNIWPEYKNRTIFDITNNLSIVILALRPSDEGTYECVVLKYEKDAFKREHLAEVTLSVKADFPTPSISDFEIPTSNIRRIICSTSGGFPEPHLSWLENGEELNAINTTVSQDPETELYAVSSKLDFNMTTNHSFMCLIKYGHLRVNQTFNWNTT
B2: human B7.1 ectodomain, His-tagged (domain or fragment)
chain: B1 chain
B3: human B7.2 ectodomain, His-tagged (domain or fragment)
chain: LKIQAYFNETADLPCQFANSQNQSLSELVVFWQDQENLVLNEVYLGKEKFDSVHSKYMGRTSFDSDSWTLRLHNLQIKDKGLYQCIIHHKKPTGMIRIHQMNSELSVLANFSQPEIVPISNITENVYINLTCSSIHGYPEPKKMSVLLRTKNSTIEYDGVMQKSQDNVTELYDVSISLSVSFPDVTSNMTIFCILETDKTRLLSSPFSIELED
B4: human B7.2 ectodomain fused to human Fc (Fc fusion)
chain: B3 chain
B5: mouse B7.2 ectodomain fused to human Fc (Fc fusion)
chain: VSVETQAYFNGTAYLPCPFTKAQNISLSELVVFWQDQQKLVLYEHYLGTEKLDSVNAKYLGRTSFDRNNWTLRLHNVQIKDMGSYDCFIQKKPPTGSIILQQTLTELSVIANFSEPEIKLAQNVTGNSGINLTCTSKQGHPKPKKMYFLITNSTNEYGDNMQISQDNVTELFSISNSLSLSFPDGVWHMTVVCVLETESMKISSKPLNFTQEFPSPQTYWKE
B6: mouse B7.1 ectodomain fused to human Fc (Fc fusion)
chain: VDEQLSKSVKDKVLLPCRYNSPHEDESEDRIYWQKHDKVVLSVIAGKLKVWPEYKNRTLYDNTTYSLIILGLVLSDRGTYSCVVQKKERGTYEVKHLALVKLSIKADFSTPNITESGNPSADTKRITCFASGGFPKPRFSWLENGRELPGINTTISQDPESELYTISSQLDFNTTRNHTIKCLIKYGDAHVSEDFTWEKPPEDPPDSK

Legend:
Assay in all cases: BLI
[1] = target: T2, MPXV M2 (monkeypox virus M2 protein), His-tagged, wild type (monkeypox virus (Clade I), UniProt Q8V554 18-220)
[2] = target: MPXV Bio-M2 (site-specifically biotinylated MPXV Avi-M2) (monkeypox virus (Clade I), UniProt Q8V554 18-220)
[3] = target: T2, MPXV M2 (monkeypox virus M2 protein), …; remark: listed apart in the source
[4] = target: T1, CPXV M2 (cowpox virus M2), recombinant, …
[5] = target: T1, CPXV M2 (cowpox virus M2), recombinant, …

| Binder | koff [1] [s⁻¹] | koff [2] [s⁻¹] | Kd [3] [nM] | Kd [4] [nM] | koff [5] [s⁻¹] |
| --- | --- | --- | --- | --- | --- |
| B1 | 2.91e-05 | – | – | – | – |
| B2 | – | 0.00676 | – | – | – |
| B3 | – | 0.0334 | – | – | – |
| B4 | 9.75e-06 | – | – | – | – |
| B5 | 0.689 | – | 13600 | 8 | 0.000363 |
| B6 | 2.92e-05 | – | 0.243 | 1.48 | 0.000109 |
